Experiments:
L-alanine-L-glutamine = biological target: T1, L-alanine-L-glutamine
T1 chain: AQ

L-glycine-L-glutamine = biological target: T2, L-glycine-L-glutamine
T2 chain: GQ

B1: holo-BpsA (BpsA pre-activated by Sfp as in Example 1), His6-tagged recombinant polypeptide (protein)
chain: MTLQETSVLEPTLQGTTTLPGLLAQRVAEHPEAIAVAYRDDKLTFRELASRSAALADYLEHLGVSADDCVGLFVEPSIDLMVGAWGILNAGAAYLPLSPEYPEDRLRYMIENSETKIILAQQRLVSRLRELAPKDVTIVTLRESEAFVRPEGTEAPAARSARPDTLAYVIYTSGSTGKPKGVMIEHRSIVNQLGWLRETYAIDRSKVILQKTPMSFDAAQWEILSPANGATVVMGAPGVYADPEGLIETIVKHNVTTLQCVPTLLQGLIDTEKFPECVSLQQIFSGGEALSRLLAIQTTQEMPGRALINVYGPTETTINSSSFPVDPADLDEGPQSISIGSPVHGTTYHILDKETLKPVGVGEIGELYIGGIQLARGYLHRDDLTAERFLEIELEEGAEPVRLYKTGDLGQWNNDGTVQFAGRADNQVKLRGYRVELDEISLAIENHDWVRNAAVIVKNDGRTGFQNLIACIELSEKEAALMDQGNHGSHHASKKSKLQVKAQLSNPGLRDDAELAARPAFDLEGAEPTPEQRARVFARKTYRFYEGGAVTQADLLGLLGATVTAGYSRKAADLAPAELGQILRWFGQYISEERLLPKYGYASPGALYATQMYFELEGVGGLKPGYYYYQPVRHQLVLISEREATGKATAQIHFIGKKSGIEPVYKNNILEVLEIETGHMVGLFEQILPAYGLDIHDRAYEPAVKDLLDVADEDYYLGTFELVPHAGARDDQAEVYVQTHGGKVAGLPEGQYRYENGELTRFSDDIVLKKHVIAINQSVYQAASFGISVYSRAEEEWLKYITLGKKLQHLMMNGLNLGFMSSGYSSKTGNPLPASRRMDAVLGANGVDSAPMYFFVGGRISDEQIGHEGMREDSVHMRGPAELIRDDLVSFLPDYMIPNRVVVFDRLPLSANGKIDVKALAASDQVNAELVERPFVAPRTETEKEIAAVWEKALRRENASVQDDFFESGGNSLIAVGLVRELNARLGVSLPLQSVLESPTIEKLARRLEREVAQESSRFVRLHAETGKARPVICWPGLGGYPMNLRSLAGEIGLGRSFYGVQSYGINEGETPYETITEMAKKDIEALKEIQPAGPYTLWGYSFGARVAFETAYQLEQAGEKVDNLFLIAPGSPKVRAENGKVWGREASFANRGYTTILFSVFTGTISGPDLDRCLETVTDEASFAEFISELKGIDVDLARRIISVVGQTYEFEYSFHELAERTLQAPISIFKAVGDDYSFLENSSGYSAEPPTVIDLDADHYSLLREDIGELVKHIRYLLGE
- blue pigment formation (A590 after resuspension in DMSO) after 72 hours at 25 C with 4 mM substrate (L-alanine-L-glutamine): In each case except the no substrate control, blue pigment formation was observed, suggesting that an indigoidine like product had indeed been formed
- blue pigment formation (A590 after resuspension in DMSO) after 72 hours at 25 C with 4 mM substrate (L-glycine-L-glutamine): In each case except the no substrate control, blue pigment formation was observed, suggesting that an indigoidine like product had indeed been formed
